This is an account of results in EP2386565A2, “Compounds and methods to inhibit or augment an inflammatory response” (Cambridge Enterprise Ltd., priority 1999, dated 2000).

Positions of bridges follow the written chain, without caps; N, C: chain ends. Non-standard residues stand in square brackets, D forms with d. No end group written: not given here. *: point of attachment. Biotin = O=C1N[C@H]2[C@H](CS[C@H]2CCCCC(=O)*)N1

In experiment [1] the target is T1, Duffy Antigen Receptor for Chemokines (DARC) (human) (UniProt Q16570).
T1 sequence (looked up): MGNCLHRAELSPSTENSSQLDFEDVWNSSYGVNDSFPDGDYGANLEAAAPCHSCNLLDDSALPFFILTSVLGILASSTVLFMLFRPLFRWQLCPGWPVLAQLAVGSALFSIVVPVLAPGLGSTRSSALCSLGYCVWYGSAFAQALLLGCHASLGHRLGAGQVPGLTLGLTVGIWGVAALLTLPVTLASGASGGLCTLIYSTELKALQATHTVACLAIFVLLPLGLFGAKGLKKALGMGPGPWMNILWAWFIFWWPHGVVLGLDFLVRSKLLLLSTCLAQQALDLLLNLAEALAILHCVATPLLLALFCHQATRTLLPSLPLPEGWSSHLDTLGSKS
Kind of experiment: estimated ka for binding to red blood cells divided by average inhibitory ED50 in THP-1 migration.

Experiment [2] deals with chemokine receptors.
For experiment [3], the target named is chemokine receptors on THP-1 cells. Nature of the experiment: binding to chemokine receptors on THP-1 cells; given as association constant.
Experiment [4] shares this target. Kind of experiment: estimated ka for binding to THP-1 cells (column 'average ED50', peptide 2 family footnote).
For experiment [5] the target is unchanged. Kind of experiment: comparison of DARC binding and THP-1 cells.
Experiment [6] addresses T2, Duffy Antigen Receptor for Chemokines (DARC) (human), Q16570.
T2 chain: T1 sequence (looked up)
Kind of experiment: Table 18, DARC binding (µM); method not restated.

The target in experiment [7] is T3, CXCR4 (human), P61073.
T3 chain: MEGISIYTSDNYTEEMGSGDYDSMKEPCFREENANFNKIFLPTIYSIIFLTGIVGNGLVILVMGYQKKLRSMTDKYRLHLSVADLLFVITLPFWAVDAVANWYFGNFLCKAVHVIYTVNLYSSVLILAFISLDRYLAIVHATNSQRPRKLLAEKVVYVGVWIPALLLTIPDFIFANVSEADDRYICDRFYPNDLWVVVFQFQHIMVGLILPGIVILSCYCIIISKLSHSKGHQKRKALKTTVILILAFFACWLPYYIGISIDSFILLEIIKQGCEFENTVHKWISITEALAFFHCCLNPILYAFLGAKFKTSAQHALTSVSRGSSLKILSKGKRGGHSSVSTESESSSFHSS
Kind of experiment: not stated; given as affinity constant.

In experiment [8] the target is CCR5 (human), P51681. Nature of the experiment: not stated; given as affinity constant.
The target of experiment [9] is T2, Duffy Antigen Receptor for Chemokines …. Kind of experiment: Duffy binding; kind of constant not named.
The target is the same in experiment [10]. Nature of the experiment: Duffy binding against the LFL peptide.
Experiment [11] has as its target chemokine receptors on THP-1 cells. Nature of the experiment: binding to THP-1 cells; printed as association constant in concentration units.
The target is the same in experiment [12]. Kind of experiment: binding to chemokine receptors on THP-1 cells; printed as Ka in concentration units.
Experiment [13] has as its target chemokine receptors on the surface of Jurkat cells. Nature of the experiment: binding to chemokine receptors on the surface of Jurkat cells; printed as Ka in concentration units.
The target in experiment [14] is T1, Duffy Antigen Receptor for Chemokines (DARC) (human). Kind of experiment: Table 18, DARC binding (µM); >100 = ED50 not determined.
The target is the same in experiment [15]. Nature of the experiment: Table 18, DARC binding (µM); method not restated.
For experiment [16] the target is unchanged. Kind of experiment: ka for binding to red blood cells divided by ka for binding to THP-1 cells.
Experiment [17] shares this target. Kind of experiment: DARC binding; method not restated.
Experiment [18] deals with chemokine receptors on THP-1 cells. Nature of the experiment: biotinylated peptide 2 on THP-1 cells, streptavidin-peroxidase, with and without 100 µM peptide 3; given as affinity constant.

CCR5 (human), P51681, sequence (P51681 whole entry): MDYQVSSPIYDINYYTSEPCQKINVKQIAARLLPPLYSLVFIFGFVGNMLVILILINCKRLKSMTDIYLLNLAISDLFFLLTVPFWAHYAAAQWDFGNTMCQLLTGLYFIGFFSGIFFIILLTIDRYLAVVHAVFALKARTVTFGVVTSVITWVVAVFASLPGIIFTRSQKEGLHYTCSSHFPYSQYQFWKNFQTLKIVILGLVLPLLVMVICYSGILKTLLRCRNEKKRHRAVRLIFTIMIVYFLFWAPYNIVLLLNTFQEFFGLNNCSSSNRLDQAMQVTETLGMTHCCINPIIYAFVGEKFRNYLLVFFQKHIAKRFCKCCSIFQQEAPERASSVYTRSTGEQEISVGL

B1: Peptide 3(1-6)[MCP-1] (peptide)
peptide: EICADP
With B1, in experiment [1], the Duffy selectivity was 5.32.

B2: CRD-Cys13pep3[3-12] (peptide)
peptide: [dC][dQ][dV][dW][dK][dQ][dK][dP][dD][dA][dC]
modifications: disulfide 1-11; not fully specified
B2: in experiment [1], the Duffy selectivity is 8.82.

B3: Pep2(1-14)[MIP1α] (peptide)
peptide: DYFETSSQCSKPGV
The molecule B3 returned a gp120 ED-50 in experiment [2] of over 100 µM. The Kd is 100 to 900 nM in experiment [3] and 1000 to 10000 nM in experiment [4].

B4: Peptide 3(3-12)[MCP-1] (peptide)
peptide: CADPKQKWVQ
As for B4, in experiment [1], the Duffy selectivity was 1.21.

B5: Ser7peptide 3(1-12)[MCP-1] (peptide)
peptide: EICADPSQKWVQ
As to B5, the Duffy selectivity in [1] was 2.

B6: Peptide 3(7-12)[MCP-1] (peptide)
peptide: KQKWVQ
Consider B6, for which the Duffy selectivity in experiment [1] is 2.94.

B7: Leu4Ile11peptide 3(1-12)[MCP-1] (peptide)
peptide: EICLDPKQKWIQ
The molecule B7 came in with a selectivity for receptors on THP-1 cells over DARC in [5] of over 20 fold.

B8: LRD peptide 2(1-15)[MCP-1] (peptide)
peptide: VAEKPCKSSTIRRYS
modifications: not fully specified (some residues)
B8: the gp120 ED-50 in experiment [2] turned out to be 3 µM. This molecule also returned a DARC binding in experiment [6] of 18 µM. The Kd is under 100 nM in experiment [7], under 100 nM in [8] and 25000 nM in experiment [9]. The same molecule had a fold decrease in Duffy binding against LFL peptide 2 in experiment [10] of 100 fold.

B9: Peptide 3(1-12)[MCP-1] (peptide)
peptide: EICADPKQKWVQ
For B9, the Kd in experiment [11] was determined as 10000 nM. Besides, the Duffy selectivity in [1] was 1.

B10: Ser7Glu8Glu9peptide 3(1-12)[MCP-1] (peptide)
peptide: EICADPSEEWVQ
modifications: not fully specified
In the case of B10, the Duffy selectivity in [1] is 0.59.

B11: Peptide 2(1-15)[MCP-1] (peptide)
peptide: SYRRITSSKCPKEAV
In the case of B11, in experiment [2], the gp120 ED-50 was determined as 0.4 µM. Also, the Kd in [12] is 300 nM; in experiment [13], 250 nM; in experiment [4] it was 2000 nM.

B12: LRD Cys0Ser10Cys16 derivative of peptide 2(1-15)[MCP-1] (peptide)
peptide: [dC][dV][dA][dE][dK][dP][dS][dK][dS][dS][dT][dI][dR][dR][dY][dS][dC]
modifications: cysteine pairing not given here
As for B12, the DARC binding in [14] was over 100 µM.

B13: Pep2(1-15)[SDF1] (peptide)
peptide: HLKILNTPNCALQIV
In turn, B13 returned a gp120 ED-50 in [2] of 35 µM. This molecule also gave a DARC binding in experiment [15] of 19 µM. The molecule also yielded a Duffy selectivity in experiment [16] of under 1. In experiment [4], the Kd is 1000 to 10000 nM.

B14: Pep2(1-16)[IL8] (peptide)
peptide: ELRVIESGPHCANTEI
As for B14, in experiment [4], the Kd is 1000 to 10000 nM.

B15: CPKEAV (peptide)
peptide: CPKEAV
In experiment [14], B15 came in with a DARC binding of over 100 µM.

B16: Ser10 variant of peptide 2(1-15)[MCP-1] (peptide)
peptide: SYRRITSSKSPKEAV
In experiment [17], B16 gave a DARC binding of 20 to 100 µM.

B17: N-terminal biotin-labeled derivative of peptide 2(1-15)[MCP-1] (peptide)
peptide: Biotin-SYRRITSSKCPKEAV
The molecule B17 registered a Kd in [18] of 250000 nM.

As usually defined, the Kd is the concentration at which binding is half-saturated.
